Results as given in patent publication US20240238459A1, “Granzyme-Activatable Membrane-Interacting Peptides and Methods of Use” (priority 2021, published 2024).
Ends that are not written are not given here.

Key:
granzyme B [1] = target: T1, granzyme B (Homo sapiens, UniProt P10144); test: Protease specificity of substrate sequence (FIG. 1F); format: biochemical; set-up: purchased; conditions: vs thrombin, caspase 3, caspase 8, granzyme K, MMP9, C1S; enzymes 5 nM, substrate 60 μM, 37° C., PBS, 1 mM DTT, pH 7.4
Description: The substrate sequence FVQWFSKFLGK (SEQ ID NO:3) was assessed for specificity for granzyme B compared to thrombin, caspase 3, caspase 8, granzyme K, MMP9, and C1S at 5 nM concentrations with substrate at 60 μM, 37° C., and buffer of PBS, 1 mM DTT, and pH 7.4.

human erythrocytes = test: Toxicity assay measuring hemolysis of human erythrocytes; conditions: in vitro, 1 hr at 37° C., hemoglobin release OD 540 nm
Description: Blood from healthy anonymous donors was harvested from Trima Leukoreduction chambers (Vitalant, San Francisco CA). Erythrocytes were isolated from the anonymous blood samples. Full-length GRIP B and activated GRIP B were measured for their hemolytic activity on healthy human erythrocytes in triplicate. Aliquots of human erythrocytes were suspended in PBS (pH 7.4) and incubated with serial dilutions of both peptides which were initially solubilized in DMSO. DMSO and 1% Triton X-100 were incubated in parallel as negative and positive controls, respectively. Incubation was for 1 hr at 37° C. After incubation, the samples were centrifuged for 5 min at 2,000×g upon which the supernatant was collected. Supernatant was measured for the release of hemoglobin by the erythrocytes using a BioTek H4 multimode plate reader, monitoring the optical density of the supernatant at a wavelength of 540 nm.

granzyme B [2] = target: T1, granzyme B; test: In vitro kinetics of quenched fluorogenic peptide proteolysis by GZMB; format: biochemical; conditions: Michaelis-Menten kinetics (FIG. 1D)

T1 sequence (P10144 21-247): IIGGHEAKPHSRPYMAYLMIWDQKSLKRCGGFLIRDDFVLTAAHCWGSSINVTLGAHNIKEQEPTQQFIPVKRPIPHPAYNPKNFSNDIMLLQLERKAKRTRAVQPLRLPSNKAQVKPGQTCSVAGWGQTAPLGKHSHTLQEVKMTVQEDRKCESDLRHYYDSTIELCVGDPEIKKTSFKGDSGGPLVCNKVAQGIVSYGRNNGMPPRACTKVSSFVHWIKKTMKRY

For FVQWFSKFLGK, the “specificity for granzyme B compared to other proteases” value (granzyme B [1]) was “highly specific for granzyme B”.

With FVQWFSKFLGKIEPDVSQVQDPNDQYEPF [GRIP B] the “toxicity toward human red blood cells” value (human erythrocytes) was “not to display toxicity”.

“IEPDVSQV (ends and bridges not checked) [NH2-K(MCA)IEPDVSQVK(DNP)-COOH]” was tested, and the “improved catalytic turnover compared to IEPD alone” value (granzyme B [2]) was “approximately 2 fold”.
